Data as given in the supplement of paper PMC9876800.

Tested on: peptide library, one residue held at a place counted from the S/T acceptor
Test: relative phosphorylation of the sub-library (ratio to the mean residue at this position); higher = residue favoured
How it was run: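 Spots on streptavidin membranes were phosphorimaged and quantified by densitometry to measure phosphorylation of biotinylated degenerate peptide sub-libraries by purified recombinant kinases, human or orthologue constructs. The reactions ran in 384-well plates for 90 min under kinase-specific conditions, with peptides at 50 μM and 50 μM ATP spiked with γ-32P-ATP. Relative sub-library phosphorylation is the ratio to the mean residue at that position.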

NEK5, construct: aa1-508, human, sequence (Q6P3R8 1-508, looked up): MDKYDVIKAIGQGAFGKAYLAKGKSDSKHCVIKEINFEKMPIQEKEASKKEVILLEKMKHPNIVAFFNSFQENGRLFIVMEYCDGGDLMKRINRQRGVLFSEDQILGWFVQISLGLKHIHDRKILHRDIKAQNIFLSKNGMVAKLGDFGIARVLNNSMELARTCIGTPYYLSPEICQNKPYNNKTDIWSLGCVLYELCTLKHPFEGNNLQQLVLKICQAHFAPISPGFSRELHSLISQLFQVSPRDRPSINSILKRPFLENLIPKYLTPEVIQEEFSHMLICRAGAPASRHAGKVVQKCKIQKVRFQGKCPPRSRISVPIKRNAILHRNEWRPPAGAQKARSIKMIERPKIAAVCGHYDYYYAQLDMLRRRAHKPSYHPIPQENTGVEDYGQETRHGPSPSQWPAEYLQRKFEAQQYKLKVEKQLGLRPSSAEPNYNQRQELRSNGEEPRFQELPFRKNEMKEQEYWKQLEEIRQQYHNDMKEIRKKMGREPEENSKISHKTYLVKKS
MARK2, construct: Full length, human, sequence (Q7KZI7 whole entry, looked up): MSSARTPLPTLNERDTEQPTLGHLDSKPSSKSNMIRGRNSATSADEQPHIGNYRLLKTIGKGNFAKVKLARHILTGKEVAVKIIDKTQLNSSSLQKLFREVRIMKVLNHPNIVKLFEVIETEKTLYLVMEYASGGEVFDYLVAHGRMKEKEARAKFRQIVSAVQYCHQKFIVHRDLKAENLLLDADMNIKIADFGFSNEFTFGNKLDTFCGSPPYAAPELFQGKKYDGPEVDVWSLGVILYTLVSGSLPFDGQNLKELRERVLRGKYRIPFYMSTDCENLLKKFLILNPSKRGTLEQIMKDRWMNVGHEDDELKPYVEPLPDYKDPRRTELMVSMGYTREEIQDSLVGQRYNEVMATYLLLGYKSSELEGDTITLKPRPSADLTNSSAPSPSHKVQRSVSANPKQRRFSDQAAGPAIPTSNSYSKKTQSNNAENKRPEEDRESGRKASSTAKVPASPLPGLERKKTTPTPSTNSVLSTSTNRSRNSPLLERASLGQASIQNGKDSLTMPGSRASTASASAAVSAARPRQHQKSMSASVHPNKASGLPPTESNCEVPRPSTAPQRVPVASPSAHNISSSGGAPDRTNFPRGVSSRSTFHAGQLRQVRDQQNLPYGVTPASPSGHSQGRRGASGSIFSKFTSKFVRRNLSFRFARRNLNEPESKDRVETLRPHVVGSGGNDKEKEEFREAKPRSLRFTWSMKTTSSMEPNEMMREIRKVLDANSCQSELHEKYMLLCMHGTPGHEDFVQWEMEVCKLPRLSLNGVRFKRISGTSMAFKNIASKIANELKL

MARK2, construct: Full length, human (from UniProt Q7KZI7)
relative phosphorylation
Details	at +1	at +2	at +3	at +4	at -1	at -2	at -3	at -4	at -5
A fixed	0.661	0.734	0.723	0.42	1.08	2	0.814	1.24	1.05
D fixed	0.564	0.774	2.49	0.401	0.73	0.399	0.458	0.956	0.844
E fixed	0.799	1.09	0.957	0.353	0.654	0.338	0.52	0.924	0.899
F fixed	0.754	0.856	0.934	0.625	0.534	1.35	0.897	0.947	1.07
G fixed	0.6	0.488	0.517	0.388	2.43	1.32	0.775	1.16	0.977
H fixed	0.796	1.06	1.35	0.44	0.834	1.29	1.3	1.11	0.947
I fixed	1.16	0.984	0.682	3.42	0.568	0.511	0.548	0.635	0.932
K fixed	0.738	0.476	0.474	0.271	1.45	0.982	1.86	1.3	1.16
L fixed	1.22	1.16	0.965	5.46	0.755	0.456	0.56	0.727	1.51
M fixed	2.28	1.12	0.896	1.64	0.936	0.711	0.911	0.911	1.11
N fixed	1.12	1.15	2.48	0.37	1.05	0.698	0.734	1.01	0.846
P fixed	0.387	0.616	0.222	0.3	1.24	0.475	0.839	0.884	0.759
Q fixed	1.81	1.2	0.956	0.263	1.26	0.619	0.785	0.933	0.8
R fixed	0.846	0.624	0.454	0.192	1.21	0.926	3.26	1.35	1.3
V fixed	1.52	1.02	0.675	1.55	0.831	0.677	0.544	0.687	0.754
W fixed	0.852	2.63	1.14	0.444	0.674	2.61	1.36	1.28	1.14
Y fixed	0.898	1.02	1.08	0.464	0.77	1.64	0.842	0.947	0.909
pThr fixed	1.29	0.81	0.381	0.287	0.37	0.438	0.518	0.756	0.656
pTyr fixed	0.584	0.583	0.681	0.283	0.688	0.498	0.656	0.746	0.791

NEK5, construct: aa1-508, human (from UniProt Q6P3R8)
relative phosphorylation
Details	at +1	at +2	at +3	at +4	at -1	at -2	at -3	at -4	at -5
A fixed	1.01	0.985	0.773	0.99	1.04	1.3	1.01	1.05	1.21
D fixed	0.278	0.417	0.524	0.792	0.791	1.17	0.548	1.14	1.18
E fixed	0.295	0.352	0.418	0.76	0.848	1.18	0.597	1.08	0.891
F fixed	1.25	0.913	1.34	0.978	0.649	0.857	1.71	0.997	1
G fixed	1.39	0.768	1.02	1.29	0.889	1.65	1.5	1.32	1.45
H fixed	0.864	1.15	1.07	1.2	1.1	1.17	1.07	1.05	1.02
I fixed	0.943	0.752	0.978	0.639	0.403	0.475	0.308	0.616	0.532
K fixed	1.04	1.74	0.986	1.26	1.74	0.692	0.927	1.11	1.06
L fixed	1.06	0.885	1.33	0.946	1.08	1.08	1.54	0.803	0.882
M fixed	1.82	1.1	1.15	0.968	1.16	1.18	1.5	1.06	0.969
N fixed	1.01	1.14	1.12	1.13	1.35	1.48	0.849	1.12	1.15
P fixed	0.238	0.735	0.987	1.31	0.504	0.692	1.35	1.19	1.39
Q fixed	1.61	1.01	0.868	1.05	1.31	0.958	0.729	0.869	0.844
R fixed	1.36	2.28	1.26	1	1.78	0.826	0.798	0.994	1.09
V fixed	0.902	0.846	0.812	0.701	0.624	0.482	0.318	0.531	0.655
W fixed	1	0.873	1.29	1.07	0.643	0.945	1.22	1.25	0.896
Y fixed	0.933	1.05	1.07	0.914	1.08	0.846	1.03	0.826	0.771
pThr fixed	0.498	0.581	0.612	0.602	0.407	0.745	0.844	1	1.2
pTyr fixed	0.429	0.401	0.715	0.562	0.879	1.12	1.01	1.01	1.15

PRKCE, construct: Full length, human (from UniProt Q02156)
relative phosphorylation
Details	at +1	at +2	at +3	at +4	at -1	at -2	at -3	at -4	at -5
A fixed	0.507	0.48	0.795	0.905	1.06	0.774	0.669	1.12	1.16
D fixed	0.169	0.162	0.342	0.375	0.373	0.296	0.223	0.455	0.383
E fixed	0.165	0.138	0.347	0.334	0.312	0.308	0.235	0.558	0.35
F fixed	1.7	0.528	0.831	0.561	0.588	0.69	0.691	0.783	1.28
G fixed	0.525	0.366	1.01	0.967	1.59	0.908	0.731	1.08	1.05
H fixed	0.66	1.02	1.25	1.16	0.936	1.1	1.09	1.16	1.12
I fixed	1.43	0.515	0.619	0.6	0.44	0.393	0.435	0.689	0.935
K fixed	2.1	4.18	2.99	3.19	2.52	2.35	2.17	2.11	1.67
L fixed	1.15	0.441	0.746	0.567	0.679	0.425	0.466	0.639	0.934
M fixed	1.18	0.566	0.581	0.62	0.813	0.528	0.545	0.833	0.744
N fixed	0.577	0.501	0.661	0.921	0.997	0.834	0.552	0.822	0.665
P fixed	0.473	0.357	0.604	1.07	1.21	0.623	0.708	0.919	0.921
Q fixed	1.01	0.543	0.7	0.931	0.949	0.957	0.64	0.894	0.753
R fixed	2.4	4.74	3.01	2.59	2.49	4.46	5.89	2.3	1.93
V fixed	1.32	0.537	0.67	0.634	0.611	0.529	0.413	0.808	0.757
W fixed	0.717	0.516	0.891	0.961	0.471	1.12	0.613	1.02	1.39
Y fixed	0.928	1.4	0.95	0.607	0.968	0.701	0.934	0.82	0.956
pThr fixed	0.851	0.471	0.573	0.688	0.378	0.561	0.657	0.799	0.932
pTyr fixed	0.505	0.525	0.731	0.569	0.528	0.535	0.678	0.625	0.989
